{"source": "paper PMC10312659", "target": "Polyketide synthase 13 (Pks13) of Mycobacterium smegmatis, endogenous, with native substrates bound (Mycobacterium smegmatis) (UniProt A0R617)", "assay": "SEC", "data": [{"substance": "Polyketide synthase 13 (Pks13) of Mycobacterium smegmatis, endogenous, with native substrates bound (from UniProt A0R617 1-1816) (enzyme)", "values": [{"measurement": "stoichiometry N", "value": 4}]}]}
